B1: Listeria innocua RsbS (LiRsbS) (natural protein)
chain: MGIPILKLGECLLISIQSELDDHTAVEFQEDLLAKIHETSARGVVIDITSIDFIDSFIAKILGDVVSMSKLMGAKVVVTGIQPAVAITLIELGITFSGVLSAMDLESGLEKLKQELGE
notes: RsbS of Listeria innocua, gene CAC96121.1; single STAS domain protein; Ser56 not phosphorylated in the structure; source: E. coli BL21 Star (DE3), co-expressed with LiRsbR from pET11a, co-purified (DEAE, Resource Q, Superose 6 Increase SEC)
B2: Listeria innocua RsbR (LiRsbR) (natural protein)
chain: MYKDFANFIRTNKKDLLNNWMNEMEKQSDPLINDIAKEPMYEETSIEFVDLIVSNITENGSKFNEKLDDFAEKVVHLGWPIHFVTTGLRVFGLLVYTAMRDEDLFLKREEKPEDDAYYRFETWLSSMYNKVVTAYADTWEKTVSIQKSALQELSAPLLPIFEKISVMPLIGTIDTERAKLIIENLLIGVVKNRSEVVLIDITGVPVVDTMVAHHIIQASEAVRLVGCQAMLVGIRPEIAQTIVNLGIELDQIITTNTMKKGMERALALTNREIVEKEG
modifications: phosphothreonine at 241 (by ESI-MS-MS and cryo-EM density; seen only in RsbR protomers interacting with RsbS); Thr175 and Thr209 not phosphorylated
notes: RsbR of Listeria innocua, gene CAC96120.1; N-terminal sensory domain, linker helix and C-terminal STAS domain; also called RsbR1; source: E. coli BL21 Star (DE3), co-expressed with LiRsbS from pET11a, co-purified (DEAE, Resource Q, Superose 6 Increase SEC)

How the values were obtained:
[1] = target: the molecule itself; experiment: cryo-EM structure; co-expressed and co-purified LiRsbRS complex (monomeric form after SEC), 0.6 mg/mL; C1 map 4.2 Å, D2 map 3.87 Å, icosahedral map 3.45 Å; model built in the D2 map
[2] = target: B1; experiment: as above; details: both partners purified

B1: binds [1].

For B2, the binding result [1] was “binds” and the “stoichiometry N” value [2] was 2 LiRsbR per LiRsbS.

— publication PMC9237128, “Molecular insights into intra-complex signal transmission during stressosome activation” (Communications Biology, 2022)
